Results: patent US20170369572A1 (CELGENE, published 2017)

Columns and labels:
human C1q = molecular target: T1, human C1q (human, UniProt P02745 23-245; P02746 28-253; P02747 29-245); experiment: C1q binding ELISA, antibody coated and titrated from 133.4 nM, human C1q at 2 µg/mL, detected with anti-C1q HRP
T1 construct: also called C1q (AbD Serotec 2221-5504)
Description: Method: 96-well high protein binding ELISA plates (MaxSorp Nunc) were coated overnight at 4° C. with sample anti-CD47 antibody variants diluted in 0.05 M Sodium Bicarbonate Buffer (pH 9). Samples were diluted at a high concentration of 133.4 nM (20 μg/ml) and titrated 1:2 in an 11-point dilution curve. Plates were washed three times in PBS, 0.05% Tween 20 and blocked for 1 hour at room temperature with ELISA Diluent (0.1 M NAPO₄, 0.1 M NaCl, 0.1% gelatin, 0.05% Tween 20, 0.05% ProClin300). Plates were then washed again three times and incubated for two hours at room temperature with 2 μg/mL human C1q (AbD Serotec 2221-5504, 1 mg/mL stock) diluted in ELISA Diluent. Plates were then washed three times and incubated with sheep anti-human C1q HRP (AbD Serotec 2221-5004P) diluted 1:200 in ELISA Diluent for 1 hour at room temperature to detect bound Clq. Plates were then washed three times, then 100 μL of TMB solution was added. Reaction was quenched by adding 100 μl of 1M Phosphoric Acid and plate was read at 450 nm. Data are plotted using Prism6 as non-linear regression with log (inhibitor) vs. response—Variable slope (four parameters).

[1] = molecular target: T2, human CD47 on CCRF-CEM cells (human, UniProt Q08722 19-323); experiment: flow cytometry on CCRF-CEM cells, MFI against concentration, one site specific binding with Hill slope
T2 construct: Endogenous CD47 on the human T lymphoblast line CCRF-CEM (ATCC CCL-119); also called CD47-positive CCRF-CEM cells; CCRF-EM cells
Description: To obtain binding curves, sample variants were titrated 1:2 in FACS buffer (PBS 2% FCS) starting from a high concentration of ˜66 nM for each sample. 0.1×10⁶ CCRF-EM cells were plated in a 96 well plate and incubated in 50 μl FACS buffer containing the indicated concentration of sample variants for 1 hour in ice. Cells were then washed with 150 μ1 FACS buffer and incubated in 50 μl FACS buffer containing the secondary antibody (anti-human-IgG-PE, Jackson ImmunoResearch) diluted 1:100, for 1 hr in ice. Cells were then washed with FACS buffer and fixed in 2% PFA for acquisition with LSR II, DB flow cytometer (BD Biosciences, San Jose, Calif.). Flow Cytometry analysis was performed using FloJo software Version 9.6.4. To obtain titration curves and Kd, Mean Fluorescence Intensity (MFI) values were plotted against concentration (nM). Kd values were calculated using Prism 6, Non linear regression curve fit analysis, One Site Specific Binding with Hill Slope.

T1 sequence (P02745 23-245 limits assumed, chain 1 of 3): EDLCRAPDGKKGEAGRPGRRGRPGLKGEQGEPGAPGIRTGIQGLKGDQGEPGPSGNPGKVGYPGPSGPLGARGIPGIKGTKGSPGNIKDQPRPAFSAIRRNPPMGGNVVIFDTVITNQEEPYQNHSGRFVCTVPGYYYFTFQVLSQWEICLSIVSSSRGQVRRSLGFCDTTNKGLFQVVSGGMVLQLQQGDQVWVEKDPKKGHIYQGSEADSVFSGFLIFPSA
T1 sequence (P02746 28-253 limits assumed, chain 2 of 3): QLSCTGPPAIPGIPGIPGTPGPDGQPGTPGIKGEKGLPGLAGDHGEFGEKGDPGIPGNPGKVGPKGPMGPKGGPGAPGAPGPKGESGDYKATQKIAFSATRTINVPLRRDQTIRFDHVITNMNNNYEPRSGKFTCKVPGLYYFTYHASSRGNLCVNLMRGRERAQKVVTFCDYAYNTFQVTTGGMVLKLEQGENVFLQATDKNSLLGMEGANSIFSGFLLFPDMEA
T1 sequence (P02747 29-245 limits assumed, chain 3 of 3): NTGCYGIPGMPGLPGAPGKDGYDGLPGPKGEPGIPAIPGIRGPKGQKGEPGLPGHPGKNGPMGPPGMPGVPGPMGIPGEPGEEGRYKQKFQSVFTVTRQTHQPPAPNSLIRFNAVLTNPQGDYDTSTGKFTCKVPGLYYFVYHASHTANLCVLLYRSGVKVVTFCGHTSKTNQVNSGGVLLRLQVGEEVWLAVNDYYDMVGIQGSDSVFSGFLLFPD

EC50 (human C1q): 3.6 nM
Kd [1]: 0.18 nM
B1: anti-CD47 antibody IgG1-parental, CHO expressed (antibody)
VH: not shown
VL: NIQMTQSPSAMSASVGDRVTITCKASQDIHRYLSWFQQKPGKVPKHLIYRANRLVSGVPSRFSGSGSGTEFTLTISSLQPEDFATYYCLQYDEFPYTFGGGTKVEIKRTVAAPSVFIFPPSDEQLKSGTASVVCLLNNFYPREAKVQWKVDNALQSGNSQESVTEQDSKDSTYSLSSTLTLSKADYEKHKVYACEVTHQGLSSPVTKSFNRGEC
notes: Parental antibody as IgG1, made in CHO cells; also called IgG1-QN1-CHO
